For 4 molecules, pKd results are on record in PMC9482650, “Quantitative fragmentomics allow affinity mapping of interactomes” (Nature Communications, 2022).

Some targets named below: MAGI1_1, Q96QZ7; GRID2IP_2, A4D2P6; AHNAK1, Q09666; GORASP1, Q9BQQ3; DLG1_3, Q12959; GRIP2_7, Q9C0E4; PARD3_3, Q8TEW0; GRIP2_6, Q9C0E4; Inadl_9, Q8NI35; DLG2_3, Q15700; GOPC, Q9HD26; Inadl_8, Q8NI35.
Common to all, as to assay: holdup assay
Parameters in all cases: key: below the threshold = too weak to quantify, mostly under pKd 3.1 to 4
Common to all, as to settings: plain residues with an end cap or a label only (N-terminal biotin on a linker: ado-ado)

The next test addresses T1, GRIP1_2, Q9Y3R0.
T1 sequence (Q9Y3R0 145-248, limits assumed, looked up): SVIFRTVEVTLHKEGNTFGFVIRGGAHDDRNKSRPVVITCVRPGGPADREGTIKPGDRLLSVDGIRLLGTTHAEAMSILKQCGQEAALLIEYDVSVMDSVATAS

Another test addresses T2, APBA2_1, Q99767.
T2 sequence (Q99767 563-664, limits assumed, looked up): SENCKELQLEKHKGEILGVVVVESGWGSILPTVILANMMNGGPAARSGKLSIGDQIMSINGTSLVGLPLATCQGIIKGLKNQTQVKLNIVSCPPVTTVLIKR

The next test concerns the target T3, SNTB1, Q13884.
T3 sequence (Q13884 107-205, limits assumed, looked up): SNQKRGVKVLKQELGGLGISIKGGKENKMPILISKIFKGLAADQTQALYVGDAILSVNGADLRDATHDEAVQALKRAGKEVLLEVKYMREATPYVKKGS

Another test deals with T4, GRIP1_5, Q9Y3R0.
T4 sequence (Q9Y3R0 568-668, limits assumed, looked up): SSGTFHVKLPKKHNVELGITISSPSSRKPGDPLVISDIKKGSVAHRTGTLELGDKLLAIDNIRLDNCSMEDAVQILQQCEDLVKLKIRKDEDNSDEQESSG

In the next test the target is T5, SHANK1, Q9Y566.
T5 sequence (Q9Y566 658-767, limits assumed, looked up): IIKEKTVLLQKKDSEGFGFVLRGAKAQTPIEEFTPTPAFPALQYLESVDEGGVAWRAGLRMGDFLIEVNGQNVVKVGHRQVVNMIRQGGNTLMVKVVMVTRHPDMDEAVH

The target of the next test is T6, NHERF3_1, Q5T2W1.
T6 sequence (Q5T2W1 4-100, limits assumed, looked up): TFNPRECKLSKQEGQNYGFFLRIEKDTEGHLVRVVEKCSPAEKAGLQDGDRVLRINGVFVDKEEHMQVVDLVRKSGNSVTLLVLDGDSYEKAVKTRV

The target of a further test is T7, TJP3_3, O95049.
T7 sequence (O95049 375-456, limits assumed, looked up): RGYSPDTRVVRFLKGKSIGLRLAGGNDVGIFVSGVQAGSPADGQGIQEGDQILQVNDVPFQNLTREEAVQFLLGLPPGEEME

A further test concerns the target T8, MPDZ_5, O75970.
T8 sequence (O75970 695-796, limits assumed, looked up): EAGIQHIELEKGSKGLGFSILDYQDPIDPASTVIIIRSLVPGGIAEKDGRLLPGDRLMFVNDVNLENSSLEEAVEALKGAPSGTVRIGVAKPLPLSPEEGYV

The next test has as its target T9, SNTG2, Q9NY99.
T9 sequence (Q9NY99 68-166, limits assumed, looked up): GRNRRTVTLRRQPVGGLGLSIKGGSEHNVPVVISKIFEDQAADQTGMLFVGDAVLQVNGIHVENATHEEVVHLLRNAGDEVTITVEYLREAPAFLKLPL

For a further test, the target named is T10, APBA3_1, O96018.
T10 sequence (O96018 389-490, limits assumed, looked up): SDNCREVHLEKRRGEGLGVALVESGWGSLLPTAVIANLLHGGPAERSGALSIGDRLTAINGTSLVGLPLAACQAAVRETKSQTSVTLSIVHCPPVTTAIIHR

The target of the next test is T11, APBA1_1, Q02410.
T11 sequence (Q02410 651-752, limits assumed, looked up): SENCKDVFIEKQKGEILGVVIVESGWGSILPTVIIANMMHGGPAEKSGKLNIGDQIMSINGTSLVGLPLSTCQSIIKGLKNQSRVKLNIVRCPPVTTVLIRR

The next test addresses T12, SNTG1, Q9NSN8.
T12 sequence (Q9NSN8 52-150, limits assumed, looked up): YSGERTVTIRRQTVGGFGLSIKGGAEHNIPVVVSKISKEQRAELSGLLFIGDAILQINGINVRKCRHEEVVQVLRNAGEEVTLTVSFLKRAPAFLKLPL

Sequence of Inadl_8, Q8NI35 (Q8NI35 1425-1530): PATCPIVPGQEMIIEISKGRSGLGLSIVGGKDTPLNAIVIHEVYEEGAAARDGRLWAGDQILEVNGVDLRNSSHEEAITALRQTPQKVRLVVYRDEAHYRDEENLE
Sequence of PARD3_3, Q8TEW0 (Q8TEW0 582-685): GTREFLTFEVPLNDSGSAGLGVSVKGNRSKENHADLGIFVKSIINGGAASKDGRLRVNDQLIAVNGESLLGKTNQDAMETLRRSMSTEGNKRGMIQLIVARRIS
Sequence of AHNAK1, Q09666 (Q09666 4-100): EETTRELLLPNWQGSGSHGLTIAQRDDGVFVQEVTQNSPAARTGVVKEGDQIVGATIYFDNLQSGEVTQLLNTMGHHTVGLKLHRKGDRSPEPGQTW
Sequence of GRIP2_7, Q9C0E4 (Q9C0E4 934-1023): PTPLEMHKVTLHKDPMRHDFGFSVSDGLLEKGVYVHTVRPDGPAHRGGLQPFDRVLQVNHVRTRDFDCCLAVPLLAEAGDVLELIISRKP
Sequence of GORASP1, Q9BQQ3 (Q9BQQ3 1-208): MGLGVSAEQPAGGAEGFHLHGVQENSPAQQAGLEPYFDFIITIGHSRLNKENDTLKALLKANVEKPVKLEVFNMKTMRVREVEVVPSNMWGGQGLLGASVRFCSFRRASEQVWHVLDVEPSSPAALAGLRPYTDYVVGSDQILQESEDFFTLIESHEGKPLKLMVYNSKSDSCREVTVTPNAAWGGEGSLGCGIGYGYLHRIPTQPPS
Sequence of GRIP2_6, Q9C0E4 (Q9C0E4 648-740): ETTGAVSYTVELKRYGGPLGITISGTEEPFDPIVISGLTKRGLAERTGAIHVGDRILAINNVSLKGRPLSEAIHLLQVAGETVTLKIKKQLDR
Sequence of MAGI1_1, Q96QZ7 (Q96QZ7 1-106): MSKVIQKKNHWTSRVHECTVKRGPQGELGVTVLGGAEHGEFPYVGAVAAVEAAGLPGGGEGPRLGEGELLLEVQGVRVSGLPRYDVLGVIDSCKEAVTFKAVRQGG
Sequence of Inadl_9, Q8NI35 (Q8NI35 1530-1615): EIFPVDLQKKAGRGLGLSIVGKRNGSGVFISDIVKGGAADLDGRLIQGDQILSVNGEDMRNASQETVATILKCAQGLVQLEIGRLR
Sequence of DLG1_3, Q12959 (Q12959 457-571): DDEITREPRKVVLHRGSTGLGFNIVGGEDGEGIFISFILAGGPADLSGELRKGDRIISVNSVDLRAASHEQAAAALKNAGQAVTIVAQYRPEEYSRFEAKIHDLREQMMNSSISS
Sequence of GRID2IP_2, A4D2P6 (A4D2P6 272-370): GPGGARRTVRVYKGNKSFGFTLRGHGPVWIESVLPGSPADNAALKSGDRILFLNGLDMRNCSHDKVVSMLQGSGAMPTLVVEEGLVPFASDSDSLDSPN

One may read the pKd as −log10 of the Kd, conventionally taken in molar units. Take GQETPLNTFC [MAP7D2, Q96T17]: the pKd result with MAGI1_1, Q96QZ7 is “below the threshold”; in the test with GRID2IP_2, A4D2P6 it was 3.88; with GRIP1_2, Q9Y3R0 it was “below the threshold”; in the test with APBA2_1, Q99767, “below the threshold”; with AHNAK1, Q09666, “below the threshold”; with SNTB1, Q13884 it was “below the threshold”. Besides, the pKd with GORASP1, Q9BQQ3 is 3.61; with GRIP1_5, Q9Y3R0, “below the threshold”; in the test with SHANK1, Q9Y566, “below the threshold”; with DLG1_3, Q12959 it was “below the threshold”; with NHERF3_1, Q5T2W1 it was 4.26; in the test with GRIP2_7, Q9C0E4 it was “below the threshold”. Also, the pKd result with TJP3_3, O95049 is “below the threshold”; in the test with MPDZ_5, O75970 it was “below the threshold”; with PARD3_3, Q8TEW0, “below the threshold”; with SNTG2, Q9NY99 it was 3.7; in the test with GRIP2_6, Q9C0E4 it was “below the threshold”; with APBA3_1, O96018, “below the threshold”. For the same molecule, the pKd result with Inadl_9, Q8NI35 is on record as “below the threshold”; with DLG2_3, Q15700, “below the threshold”; with GOPC, Q9HD26, “below the threshold”; with Inadl_8, Q8NI35 it was “below the threshold”; with APBA1_1, Q02410, “below the threshold”; with SNTG1, Q9NSN8, “below the threshold”.

As to RPGFASESKV [ADRB1, P08588], the pKd result was “below the threshold” in the test with MAGI1_1, Q96QZ7; “below the threshold” in the test with GRID2IP_2, A4D2P6; “below the threshold” in the test with GRIP1_2, Q9Y3R0; “below the threshold” in the test with APBA2_1, Q99767; “below the threshold” with AHNAK1, Q09666; 4.35 in the test with SNTB1, Q13884. Besides, the pKd result with GORASP1, Q9BQQ3 was “below the threshold”; in the test with GRIP1_5, Q9Y3R0, “below the threshold”; in the test with SHANK1, Q9Y566 it was “below the threshold”; with DLG1_3, Q12959, “below the threshold”; in the test with NHERF3_1, Q5T2W1 it was 4.36; in the test with GRIP2_7, Q9C0E4 it was “below the threshold”. The pKd entry with TJP3_3, O95049 was “below the threshold”; with MPDZ_5, O75970, “below the threshold”; with PARD3_3, Q8TEW0, “below the threshold”; with SNTG2, Q9NY99 it was 4.35; in the test with GRIP2_6, Q9C0E4, “below the threshold”; with APBA3_1, O96018 it was “below the threshold”. The pKd with Inadl_9, Q8NI35 is 3.47; with DLG2_3, Q15700, 3.75; with GOPC, Q9HD26, 3.64; with Inadl_8, Q8NI35, 3.73; in the test with APBA1_1, Q02410, “below the threshold”; in the test with SNTG1, Q9NSN8, 4.59.

Regarding QYPGSPDSWV [PKP4, Q99569], the pKd entry with MAGI1_1, Q96QZ7 was “below the threshold”; with GRID2IP_2, A4D2P6, “below the threshold”; with GRIP1_2, Q9Y3R0 it was “below the threshold”; in the test with APBA2_1, Q99767, “below the threshold”; with AHNAK1, Q09666, 3.51; with SNTB1, Q13884, 4.36. Besides, the pKd is 3.79 with GORASP1, Q9BQQ3; “below the threshold” in the test with GRIP1_5, Q9Y3R0; “below the threshold” with SHANK1, Q9Y566; “below the threshold” with DLG1_3, Q12959; “below the threshold” in the test with NHERF3_1, Q5T2W1; 3.96 in the test with GRIP2_7, Q9C0E4. Further, the pKd in the test with TJP3_3, O95049 worked out at 4.86; in the test with MPDZ_5, O75970, 3.58; with PARD3_3, Q8TEW0 it was 3.85; in the test with SNTG2, Q9NY99, 3.62; in the test with GRIP2_6, Q9C0E4, 3.51; in the test with APBA3_1, O96018 it was 3.63. For the same molecule, the pKd is 3.72 in the test with Inadl_9, Q8NI35; “below the threshold” with DLG2_3, Q15700; “below the threshold” in the test with GOPC, Q9HD26; 4.16 with Inadl_8, Q8NI35; “below the threshold” with APBA1_1, Q02410; 4.57 in the test with SNTG1, Q9NSN8.

DFRHKSSFVI [JAM3, Q9BX67]: the pKd result in the test with MAGI1_1, Q96QZ7 is reported as “below the threshold”; with GRID2IP_2, A4D2P6 it was “below the threshold”; with GRIP1_2, Q9Y3R0 it was “below the threshold”; with APBA2_1, Q99767 it was “below the threshold”; in the test with AHNAK1, Q09666 it was “below the threshold”; with SNTB1, Q13884, “below the threshold”. The pKd with GORASP1, Q9BQQ3 is 4.82; with GRIP1_5, Q9Y3R0, “below the threshold”; with SHANK1, Q9Y566, “below the threshold”; in the test with DLG1_3, Q12959, “below the threshold”; with NHERF3_1, Q5T2W1, “below the threshold”; in the test with GRIP2_7, Q9C0E4 it was “below the threshold”. Also, the pKd result was “below the threshold” with TJP3_3, O95049; “below the threshold” with MPDZ_5, O75970; 3.94 with PARD3_3, Q8TEW0; “below the threshold” with SNTG2, Q9NY99; 4.05 in the test with GRIP2_6, Q9C0E4; “below the threshold” with APBA3_1, O96018. The pKd entry was “below the threshold” with Inadl_9, Q8NI35; 3.52 in the test with DLG2_3, Q15700; “below the threshold” with GOPC, Q9HD26; “below the threshold” in the test with Inadl_8, Q8NI35; “below the threshold” in the test with APBA1_1, Q02410; “below the threshold” with SNTG1, Q9NSN8.
